{
  "source": "paper PMC8304084",
  "about": "“A Concerted Action of UBA5 C-Terminal Unstructured Regions Is Important for Transfer of Activated UFM1 to UFC1” (International Journal of Molecular Sciences, 2021)",
  "format_in_all_cases": "binding",
  "key": {"[1]": {"biological_target": "T1, UFC1 (Homo sapiens, UniProt Q9Y3C8)", "T1 construct": "Full length UFC1, residues 1–167; modified ubiquitin tag (Ub19) with TEV site (N, cleaved yes); made in house; host or cells: E. coli T7 Express", "T1 sequence (Q9Y3C8 1-167)": "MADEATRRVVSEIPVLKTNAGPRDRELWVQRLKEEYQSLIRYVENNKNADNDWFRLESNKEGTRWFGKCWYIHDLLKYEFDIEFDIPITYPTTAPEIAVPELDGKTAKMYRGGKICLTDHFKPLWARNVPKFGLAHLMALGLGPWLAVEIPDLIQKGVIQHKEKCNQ", "test": "NMR titration with UFC1", "details": "[15N,1H] TROSY-HSQC, 25 °C", "protocol": "To understand the role of the UBA5 C-terminal region in coordination of the binding events reported above on the molecular level, we performed NMR titration experiments. […] It seems, that these UBA5 residues form additional interactions with UFC1.\nAll NMR experiments were performed at a sample temperature of 25 °C on Bruker 600, 700, 800, 900, and 950 MHz spectrometers equipped with cryogenic probes, and a 500 MHz spectrometer equipped with a room-temperature triple-resonance probe. All NMR spectra were analyzed with the Sparky 3.114 software (University of California, San Francisco, USA). For NMR titration experiments, the non-labeled UBA5 peptides were titrated to 100 µM ^13C,^15N-labeled UFC1 to a final molar ratio of 1:8 (UFC1:UBA5 peptide). Conversely, 100 µM ^13C,^15N-labeled UBA5 peptides were titrated with non-labeled UFC1 to a final molar ratio 1:4 (UBA5 peptide:UFC1). 2D ^1H-^15N correlation spectra ([^15N,^1H] TROSY-HSQC) were recorded at each titration point. The same types of spectra were recorded to estimate binding of ^13C,^15N-labeled UFC1 (75 µM) to non-labeled UBA5, UBA5~UFM1 and UFM1 at 1:2 molar ratios. CSP values, Δδ, were calculated for each individual amide group using the formula Δδ = [(ΔδN/5)^2 + Δδ^2HN)]^1/2."}, "[2]": {"tested_on": "UBA5 AD^1–330", "test": "ITC, UBA5 C-terminus vs UBA5 AD", "details": "25 °C, R1-R2-R3^325–404 titrated into AD^1–330 solution", "source_text": "(§1) To understand how the UBA5 C-terminus participates in the ufmylation cascade, we performed isothermal titration calorimetry (ITC) experiments, in which we titrated UBA5 C-terminal peptides (see Table 1) to the UBA5 AD, UFC1, UFM1 and representative LC3/GABARAP proteins (Figure 2A, Supplementary Figure S2A–D and Table 2).\nAll proteins and peptides were expressed in E.Coli T7 Express (New England Biolabs GmbH, Frankfurt, Germany) cells in LB or M9 (to obtain ^15N- and ^13C,^15N-labeled polypeptides) media according to the protocol described in [33, 36]. For protein purification, bacterial cell pellets were resuspended in lysis buffer (50 mM Tris-HCl pH = 7.5, 100 mM NaCl, 5% glycerol, 5 mM PIC (protease inhibitor cocktail)) and lysed via sonication (TT13 Sonotrode, 40% amplitude, for 6 × 1 min with a 0.5/0.5-s pulse). Lysates were centrifuged for 45 min at 17,000× g at 4 °C. […] The protein and peptide concentrations were calculated from the UV absorption at 280 nm by Nanodrop spectrophotometer (Thermo Scientific, Langenselbold, Germany).\nAll ITC experiments were performed at 25 °C using a VP-ITC microcalorimeter (Malvern Panalytical Ltd., Malvern, UK). […] The ITC data were analyzed based on a “one-site” binding model with MicroCal ITC software implemented in Origin 7.0. […]"}, "[3]": {"biological_target": "T2, UFM1 (Homo sapiens, UniProt P61960)", "T2 construct": "Full length UFM1, residues 2–83; modified ubiquitin tag (Ub19) with TEV site (N, cleaved yes); made in house; host or cells: E. coli T7 Express", "T2 sequence (P61960 2-83)": "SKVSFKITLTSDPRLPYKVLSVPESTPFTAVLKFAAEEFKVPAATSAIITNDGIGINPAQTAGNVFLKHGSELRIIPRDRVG", "test": "ITC, UBA5 peptides vs UFM1", "details": "25 °C", "source_text": "as §1\nAll proteins and peptides were expressed in E.Coli T7 Express (New England Biolabs GmbH, Frankfurt, Germany) cells in LB or M9 (to obtain ^15N- and ^13C,^15N-labeled polypeptides) media according to the protocol described in [33, 36]. For protein purification, bacterial cell pellets were resuspended in lysis buffer (50 mM Tris-HCl pH = 7.5, 100 mM NaCl, 5% glycerol, 5 mM PIC (protease inhibitor cocktail)) and lysed via sonication (TT13 Sonotrode, 40% amplitude, for 6 × 1 min with a 0.5/0.5-s pulse). Lysates were centrifuged for 45 min at 17,000× g at 4 °C. Supernatants were loaded onto a His Trap Fast Flow 5 mL column (GE Healthcare, München, Germany) equilibrated in loading buffer (50 mM Tris-HCl pH = 8.0, 250 mM NaCl, 1% glycerol, 20 mM imidazole). The column was washed with loading buffer for 5–10 CV and protein was eluted with elution buffer (50 mM Tris-HCl pH = 8, 250 mM NaCl, 1% glycerol, 400 mM imidazole). Simultaneous TEV cleavage (1 mg TEV protease was added to 100 mg peptides/proteins) and buffer exchange to loading buffer via dialysis was performed over night at 4 °C. After reverse IMAC, proteins were concentrated with conical concentrators (Millipore Merck, Darmstadt, Germany) and loaded on a Superdex 10/60 75 or 200 column (GE Healthcare, München, Germany) for further purification and equilibration with ITC/NMR buffer (25 mM HEPES pH = 7.5, 100 mM NaCl). For structural NMR spectroscopy, buffer containing 50 mM Tris-HCl pH = 7.5, 100 mM NaCl was used. Prior to NMR experiments, TCEP and protease inhibitors cocktail were added to the samples to final concentrations 1 and 5 mM, respectively. Purified peptides and protein were concentrated and stored at −80 °C. The protein and peptide concentrations were calculated from the UV absorption at 280 nm by Nanodrop spectrophotometer (Thermo Scientific, Langenselbold, Germany).\nAll ITC experiments were performed at 25 °C using a VP-ITC microcalorimeter (Malvern Panalytical Ltd., Malvern, UK). Peptides in concentration of ~400 µM were titrated into 20–25 µM solutions of corresponding binding partner at a stirring speed of 307 rpm. The raw data were corrected on the dilution heat of peptides obtained in independent experiment (titration of the peptide in syringe into the ITC/NMR buffer in the measuring cell). Pre-titration delay was set to 180 s, interval between titration steps was experimentally adjusted to avoid kinetic contribution to the observed heat effects and set to 200 s. A single ITC profile was collected for each type of interaction. The ITC data were analyzed based on a “one-site” binding model with MicroCal ITC software implemented in Origin 7.0."}},
  "data": [
    {"substance": "R1-R2-R3^325–404: UBA5 C-terminal part, residues 325–404 (recombinant, E. coli)", "values": [
      {"measurement": "interaction with UFC1 (in words)", "setting": "[1]", "value": "mediated mostly by the UBA5 residues 386–404"},
      {"measurement": "interaction with UBA5 AD", "setting": "[2]", "value": "does not interact with the UBA5 AD"},
      {"measurement": "interaction with UBA5 AD", "setting": "[2]; listed as R1‐R2‐R3325–404", "value": "No interactions"},
      {"measurement": "affinity change, UFM1", "setting": "[3]; compared with isolated R1^325−357 peptide (ref 31)", "value": "does not change significantly"},
      {"measurement": "ΔG", "setting": "[3]; vs UFM1", "value": -7.15, "unit": "kcal/mol"},
      {"measurement": "−T*ΔS", "setting": "[3]; vs UFM1", "value": -1.31, "unit": "kcal/mol"},
      {"measurement": "ΔS", "setting": "[3]; vs UFM1, one-site model, single profile", "value": 4.41, "unit": "cal mol^−1 K^−1"},
      {"measurement": "KA*10^−6", "setting": "[3]; vs UFM1, value is KA × 10^−6, ± = fitting error", "value": "0.17 ± 0.02", "unit": "M^−1"}
    ]}
  ]
}
